Source: patent US20260159606A1 (VIB VZW, published 2026)
Substitutions are numbered along the chain they refer to.

T1: D275N- and R277T-mutant hPIV-3 HN, expressed on transfected HEK293T cells (human parainfluenza virus 3 (hPIV-3), UniProt P08492 1-572)
T1 construct: also called mut HN3
T1 chain: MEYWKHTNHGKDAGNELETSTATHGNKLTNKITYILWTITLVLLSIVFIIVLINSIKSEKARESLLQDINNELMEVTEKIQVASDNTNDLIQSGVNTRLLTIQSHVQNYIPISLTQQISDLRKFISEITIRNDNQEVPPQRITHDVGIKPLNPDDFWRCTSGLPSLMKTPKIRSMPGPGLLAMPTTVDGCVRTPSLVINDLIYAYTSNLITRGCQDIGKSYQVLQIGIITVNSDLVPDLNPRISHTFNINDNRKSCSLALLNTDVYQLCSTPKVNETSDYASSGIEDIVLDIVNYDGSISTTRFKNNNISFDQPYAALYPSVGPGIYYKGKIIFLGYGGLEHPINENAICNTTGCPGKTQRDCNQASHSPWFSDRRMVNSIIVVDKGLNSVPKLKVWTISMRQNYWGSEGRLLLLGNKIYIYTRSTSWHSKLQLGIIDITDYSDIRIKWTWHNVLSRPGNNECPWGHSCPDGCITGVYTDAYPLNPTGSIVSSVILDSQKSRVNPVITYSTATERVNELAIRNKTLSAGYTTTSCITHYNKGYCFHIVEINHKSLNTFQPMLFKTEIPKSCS

T2: HN of hPIV-1-GFP virus (on virions and on hPIV-1-infected cells) (human parainfluenza virus 1 (hPIV-1), UniProt P16071 1-575)
T2 sequence: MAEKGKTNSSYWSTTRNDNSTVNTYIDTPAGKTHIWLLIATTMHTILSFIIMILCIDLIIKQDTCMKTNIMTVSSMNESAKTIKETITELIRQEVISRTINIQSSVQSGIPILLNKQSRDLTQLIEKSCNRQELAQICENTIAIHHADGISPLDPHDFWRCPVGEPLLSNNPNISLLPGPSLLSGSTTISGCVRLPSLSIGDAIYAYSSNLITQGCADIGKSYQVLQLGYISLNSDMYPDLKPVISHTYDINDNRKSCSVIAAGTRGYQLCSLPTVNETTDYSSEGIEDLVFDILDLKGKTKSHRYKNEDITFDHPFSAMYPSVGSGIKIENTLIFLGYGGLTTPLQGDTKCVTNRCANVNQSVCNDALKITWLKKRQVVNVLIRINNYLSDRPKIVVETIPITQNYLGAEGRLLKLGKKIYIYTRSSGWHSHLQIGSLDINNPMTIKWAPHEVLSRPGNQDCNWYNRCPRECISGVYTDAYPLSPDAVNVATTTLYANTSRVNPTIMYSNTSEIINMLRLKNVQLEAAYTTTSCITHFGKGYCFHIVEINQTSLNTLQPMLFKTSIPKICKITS

T3: hPIV-3 hemagglutinin-neuraminidase (HN), expressed on transfected HEK293T cells (human parainfluenza virus 3 (hPIV-3), UniProt P08492 1-572)
T3 construct: also called hPIV-3 HN; HN3
T3 chain: T1 chain with N275D, T277R

T4: hPIV-1 hemagglutinin-neuraminidase (HN), expressed on transfected HEK293T cells (human parainfluenza virus 1 (hPIV-1), UniProt P16071 1-575)
T4 construct: whole, on cells; also called hPIV-1 HN; HN1
T4 sequence: T2 sequence

B1: bivalent VHH A2R3-59-59 (VHH)
chain: QVQLQESGGGLVQPGGSLRLSCAASGSISGINGMGWYRQAPGKQRELVAAITSGGSTNYADSVKGRFTISRDNAKNTVDLQMNSLQPEDTAVYYCYVSSTPSWGLYDDYWGQGTQVTVSSGGGGSGGGGSGGGGSQVQLQESGGGLVQPGGSLRLSCAASGSISGINGMGWYRQAPGKQRELVAAITSGGSTNYADSVKGRFTISRDNAKNTVDLQMNSLQPEDTAVYYCYVSSTPSWGLYDDYWGQGTQVTVSS
notes: also called bivalent A2R3-59
B2: VHH A2R3-55 (VHH)
VHH: QVQLQESGGGLVQAGGSLRLSCAASGSIDRIDAMGWSRQAPGKQRELVATITTGGITNYAVSVKGRFTISRDNAKNTVYLQMNSLKPEDTAVYYCNAQGAPSWGLYEDYWGQGTQVTVSS

Legend:
[1] = biological target: T1, D275N- and R277T-mutant hPIV-3 HN, …; experiment: flow cytometry on transfected HEK293T cells, VHH 1 or 0.1 µg/ml (FIG. 11C)
[2] = biological target: HN of hPIV-3-GFP virus (on virions and on hPIV-3-infected cells) (human parainfluenza virus 3 (hPIV-3), UniProt P08492 1-572); experiment: cell-based or functional assay
[3] = biological target: T2, HN of hPIV-1-GFP virus (on virions and …); experiment: cell-based or functional assay
[4] = biological target: T3, hPIV-3 hemagglutinin-neuraminidase …; experiment: flow cytometry on transfected HEK293T cells, 10 µg/ml (FIG. 16A)
[5] = biological target: T4, hPIV-1 hemagglutinin-neuraminidase …; experiment: flow cytometry on transfected HEK293T cells
[6] = biological target: T3, hPIV-3 hemagglutinin-neuraminidase …
[7] = biological target: T1, D275N- and R277T-mutant hPIV-3 HN, …; experiment: flow cytometry on transfected HEK293T cells (FIG. 11C)
[8] = biological target: T5, hPIV-3 fusion protein (F), expressed on transfected HEK293T cells (human parainfluenza virus 3 (hPIV-3), UniProt P06828 19-539); experiment: flow cytometry on transfected HEK293T cells (FIG. 4)
T5 construct: whole, on cells

Binder | binding result [1] | fold higher potency of hPIV-3-GFP neutralization than the monovalent counterpart [2] [fold] | IC50 of neutralization of hPIV-1-GFP on Vero (E6) TMPRSS2 cells [3] [nM] | binding result [4] | binding result [5] | fold reduction of binding at 500 µg/ml of zanamivir [6] [fold] | binding result [7] | binding result [8]
B1 | binds | ~8 | 2.9 | binds | – | – | – | –
B2 | – | – | – | – | no binding | ~5 | no binding (tested: 1 or 0.1 µg/ml) | no binding (tested: 1 µg/ml)
